Data on 18 sequences can be found in the supplement of paper PMC12764529.

± gives the half width of the 95% confidence interval.

Data set [1] can be described thus: folding stability dG unfold (combined trypsin and chymotrypsin); higher = more stable. The method, boiled down: (§1)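 Sequencing followed digestion of designed mini-proteins with trypsin and chymotrypsin, each at 11 concentrations in threefold dilutions together with a no-protease condition. The mini-proteins were under 80 residues, had no cysteine, sat in a PA-tagged cDNA display construct, and were kept only if AlphaFold2 dimer inter-PAE was above 15. From the counts, Bayesian fitting gave K50, and unfolding free energy was derived against a sequence-predicted unfolded-state K50 and a shared folded-state K50, per protease or combined.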

A short description of data set [2]: folding stability dG unfold from chymotrypsin proteolysis; higher = more stable. The method, boiled down: as §1
Data set [3] in a line: folding stability dG unfold from trypsin proteolysis; higher = more stable. The method, boiled down: as §1

Take “SAGGSAGGSAGGGMSSVSLVKTSTITVGNGTVKLETLSYPDSSFVRTTLPNGKDVVEPLPSAGGSAGGSAGG [r7_655_JUSTAS]”: the figures for the “folding stability dG unfold” value in data set [1], in data set [2] and in data set [3] were -0.089 ± 0.13 kcal/mol, 0.105 ± 0.1 kcal/mol and -0.561 ± 0.16 kcal/mol, respectively.

For “SAGGSAGGSAGGGMSTAVLKIDDKWVPVRIYPDSVVIEYPDGSTKTISLSEIPENLIELPSAGGSAGGSAGG [r7_748_JUSTAS]”, the figures for the “folding stability dG unfold” value in data set [1], in data set [2] and in data set [3] were 1.43 ± 0.15 kcal/mol, 0.547 ± 0.07 kcal/mol and 2.2 ± 0.12 kcal/mol, respectively.

Consider “SAGGSAGGSAGGGMSVKVTVKDPVNGTTSVYELSVPPGVSNVVINVKTPDNSTVTKVTLESAGGSAGGSAGG [r7_687_JUSTAS]”, for which the “folding stability dG unfold” value worked out at 1.11 ± 0.11 kcal/mol in data set [1], 1.28 ± 0.034 kcal/mol in data set [2] and 0.754 ± 0.09 kcal/mol in data set [3].

For the sequence “SAGGSAGGSAGGGMTTTKTEVSFSPAGGLVTTKSTERLPGTGELKEVTSVTPLASSGTTSAGGSAGGSAGGS [r10_296_JUSTAS]”, the “folding stability dG unfold” value in data set [1] turned out to be 0.622 ± 0.081 kcal/mol; in data set [2], 0.846 ± 0.034 kcal/mol; in data set [3], 0.0156 ± 0.034 kcal/mol.

Regarding “SAGGSAGGSAGGGMTVEESVFLDPSGTRITVTTRVFDDGTVVTETEVTPLPPTPNPALASAGGSAGGSAGGS [r10_878_JUSTAS]”, the results for the “folding stability dG unfold” value in data set [1], in data set [2] and in data set [3] were 1.11 ± 0.15 kcal/mol, 1.08 ± 0.066 kcal/mol and 1.2 ± 0.035 kcal/mol, respectively.

Regarding “SAGGSAGGSAGGGPDATPVTTTYVDLNLTPVSTETDPETGAVTVTYKLPGETITVTLPASAGGSAGGSAGGS [r10_962_JUSTAS]”, the “folding stability dG unfold” value in data set [1] was 0.573 ± 0.22 kcal/mol; in data set [2], 1.11 ± 0.42 kcal/mol; in data set [3] it was -0.629 ± 0.13 kcal/mol.

On to “SAGGSAGGSAGGGPEDRVVPLFFEFDLPEDVVLEVPSDADVFVFRLPDRTLMVLLVDERESAGGSAGGSAGG [r7_584_TrMRF]”, for which the “folding stability dG unfold” value in data set [1] turned out to be 2.51 ± 0.057 kcal/mol; in data set [2], 2.88 ± 0.023 kcal/mol; in data set [3], 1.82 ± 0.051 kcal/mol.

Turning to “SAGGSAGGSAGGGPSSMVTVETKEELLTLPNGEKLIKTTTTTKTPTATTTTTTVLPAELLSAGGSAGGSAGG [r7_682_JUSTAS]”, the figures for the “folding stability dG unfold” value in data set [1], in data set [2] and in data set [3] were 0.515 ± 0.2 kcal/mol, 0.561 ± 0.068 kcal/mol and 0.0664 ± 0.063 kcal/mol, respectively.

As for “SAGGSAGGSAGGGSMESVVLNVPIYEKTPDGSWRLVKELPILVPVDASPEVVEKKRKELSAGGSAGGSAGGS [r10_470_JUSTAS]”, the “folding stability dG unfold” value in data set [1] was -0.481 ± 0.17 kcal/mol; in data set [2], -0.822 ± 0.68 kcal/mol; in data set [3], -0.41 ± 0.13 kcal/mol.

Turning to “SAGGSAGGSAGGGSMVTVPVTTESTTTVPPGAPAVEAAPVDPATATVSTTTSSTSLVASSAGGSAGGSAGGS [r10_82_JUSTAS]”, the “folding stability dG unfold” value was 0.862 ± 0.092 kcal/mol in data set [1], 0.534 ± 0.029 kcal/mol in data set [2] and 1.22 ± 0.081 kcal/mol in data set [3].

As to “SAGGSAGGSAGGGSPIPTTTLTTVTYGSSSSLLSSAKGPSSVPYSLPSSLGSSVSTTVVGSAGGSAGGSAGG [r7_141_JUSTAS]”, the results for the “folding stability dG unfold” value in data set [1], in data set [2] and in data set [3] were -0.34 ± 0.38 kcal/mol, -0.13 ± 0.29 kcal/mol and -0.911 ± 0.3 kcal/mol, respectively.

“SAGGSAGGSAGGGSSMITLERESEPGETFEFNFPGVSEVTVTEVIPGDGKVTVKVEVTSPSAGGSAGGSAGG [r7_292_JUSTAS]”: the “folding stability dG unfold” value came to 0.537 ± 0.11 kcal/mol in data set [1], 0.0882 ± 0.09 kcal/mol in data set [2] and 0.782 ± 0.059 kcal/mol in data set [3].

Regarding “SAGGSAGGSAGGGSSVITTTETDPANGLLTTTTTTINGSETVPSSTVSPVPPPPPPSTLSAGGSAGGSAGGS [r10_354_JUSTAS]”, the “folding stability dG unfold” value came out at 1.11 ± 0.12 kcal/mol in data set [1], 0.0312 ± 0.094 kcal/mol in data set [2] and 1.67 ± 0.14 kcal/mol in data set [3].

As to “SAGGSAGGSAGGGSVTIEIEFEAKPGEKFTVTIKGFKKVEITEIYPFDGKVRIKVKVTPESAGGSAGGSAGG [r7_292_TrMRF]”, the “folding stability dG unfold” value in data set [1] is 3.67 ± 0.13 kcal/mol; in data set [2], 3.88 ± 0.13 kcal/mol; in data set [3], 3.18 ± 0.13 kcal/mol.

Turning to “SAGGSAGGSAGGGVAFSSDTTETRIDTTDDDTIVITTTTYAPNPSSTTTTVTTVPPDVPLSAGGSAGGSAGG [r7_128_JUSTAS]”, the “folding stability dG unfold” value in data set [1] came out at 0.75 ± 0.14 kcal/mol; in data set [2], 0.0059 ± 0.23 kcal/mol; in data set [3], 1.24 ± 0.044 kcal/mol.

Consider “SAGGSAGGSAGGGYIEIDSVHLHPDGTVTRTRAVLEVDENGNVRVLSAETETVPLDDILGSAGGSAGGSAGG [r7_521_TrMRF]”, for which the “folding stability dG unfold” value came out at 2.38 ± 0.12 kcal/mol in data set [1], 2.32 ± 0.043 kcal/mol in data set [2] and 2.28 ± 0.14 kcal/mol in data set [3].

“SAGGSAGGSAGGHMVMITITIPIKKGAEIKFGDWDIKVPPGEQIQITIMIPVPPPDDDKSAGGSAGGSAGGS [r10_949_TrROS]”: the results for the “folding stability dG unfold” value in data set [1], in data set [2] and in data set [3] were 2.79 ± 0.3 kcal/mol, 2.8 ± 0.21 kcal/mol and 2.91 ± 0.16 kcal/mol, respectively.

As to “SAGGSAGGSAGGIAEALKAAFPDEGVEVVSIHPDGKVEVRVDGTPELREKVEKAVKELLSSAGGSAGGSAGG [r11_418_TrMRF]”, the “folding stability dG unfold” value in data set [1] was found to be 0.798 ± 0.18 kcal/mol; in data set [2] it was 0.621 ± 0.067 kcal/mol; in data set [3] it was 1.08 ± 0.087 kcal/mol.
